Data reported in article PMC7746762.

Target: FliC-NikRC flagellin variant (flagellin with its D3 domain replaced by the C-terminal Ni-binding domain of NikR) (S. typhimurium | E. coli) (UniProt P0A6Z6)
Test: dynamic light scattering; purified FliC-NikRC in solution; conditions not shown (Fig. S1 in the SI)

FliC-NikRC flagellin variant (flagellin with its D3 domain replaced by the C-terminal Ni-binding domain of NikR) (from UniProt P0A6Z6 50-133)
stoichiometry N: 4
